Reference: patent publication US20210113678A1 (ENTEROME S A, published 2021)

biological target: T1, HLA-A*0201 molecule on human T2 cells (human); assay: T2 cells expressing HLA-A*0201, anti-HLA-A2-PE, FACS
T1 construct: read out with anti-HLA-A2 antibody BB7.2-PE; also called HLA-A2

Point of comparison: LTLGEFLKL [BIRC5-H, listing 1 of 2 here], “Concentration of peptide that induces 20% of HLA-A2 expression” value 53 µM. Against it:
- FLVEDETVI [EZH2-B] — 6-fold lower, 8.8 µM
- FMLGEFLKL [BIRC5-B1, listing 1 of 2 here] — 20-fold lower, 2.7 µM
- FLPFGFILV [IL13RA2-B, listing 1 of 2 here] — 18-fold lower, 2.9 µM

Point of comparison: FMLGEFLKL [BIRC5-B1, listing 1 of 2 here], “In vitro binding affinity (relative to reference peptide HIV pol 589-597)” value 0.8. Against it:
- FLVEDETVI [EZH2-B] — lower, 0.7
- LTLGEFLKL [BIRC5-H, listing 1 of 2 here] — higher, 16.1
- FLPFGFILPV [IL13RA2-L] — lower, 0.3
- FLPFGFILV [IL13RA2-B, listing 1 of 2 here] — lower, 0.3

biological target: T1, HLA-A*0201 molecule on human T2 cells; assay: T2 cells expressing HLA-A*0201, anti-HLA-A2-PE, FACS (Example 7)

Point of comparison: ILPFGFILA [peptide 1I9A, listing 1 of 2 here], “In vitro binding affinity (relative to reference peptide HIV pol 589-597)” value 2.22. Against it:
- FLPFGFILV [IL13RA2-B, listing 1 of 2 here] — lower, 0.49
- FLPFGFILM [peptide 1F9M, listing 1 of 2 here] — higher, 2.62
- ALPFGFILV [comparative peptide 1A9V, listing 1 of 2 here] — higher, 3.06

biological target: T1, HLA-A*0201 molecule on human T2 cells; assay: T2 cells expressing HLA-A*0201, anti-HLA-A2-PE, FACS (Example 9)

Point of comparison: FMLGEFLKL [BIRC5-B1, listing 1 of 2 here], “mean relative fluorescence intensity at 0.1 µM peptide” value 1.07 % of HIV peptide. Against it:
- LMLGEFLKL [peptide 2M, listing 1 of 2 here] — lower, 0.76 % of HIV peptide
- LTLGEFLKL [BIRC5-H, listing 1 of 2 here] — lower, 0 % of HIV peptide

Point of comparison: LMLGEFLKL [peptide 2M, listing 1 of 2 here], “mean relative fluorescence intensity at 1 µM peptide” value 8.37 % of HIV peptide. Against it:
- LTLGEFLKL [BIRC5-H, listing 1 of 2 here] — lower, 0 % of HIV peptide
- FMLGEFLKL [BIRC5-B1, listing 1 of 2 here] — higher, 17.4 % of HIV peptide

Point of comparison: FMLGEFLKL [BIRC5-B1, listing 1 of 2 here], “mean relative fluorescence intensity at 10 µM peptide” value 65.1 % of HIV peptide. Against it:
- LMLGEFLKL [peptide 2M, listing 1 of 2 here] — lower, 48.5 % of HIV peptide
- LTLGEFLKL [BIRC5-H, listing 1 of 2 here] — lower, 3.52 % of HIV peptide

Point of comparison: LMLGEFLKL [peptide 2M, listing 1 of 2 here], “mean relative fluorescence intensity at 100 µM peptide” value 75.2 % of HIV peptide. Against it:
- LTLGEFLKL [BIRC5-H, listing 1 of 2 here] — lower, 20.5 % of HIV peptide
- FMLGEFLKL [BIRC5-B1, listing 1 of 2 here] — higher, 102 % of HIV peptide

biological target: T2, HLA-A*0201 molecule expressed by the human tumoral cell T2 (human); assay: T2 cell HLA-A2 stabilisation assay, flow cytometry with anti-HLA-A2 BB7.2-PE
T2 construct: MHC class I on T2 cells; The tested peptide is added from outside; Surface HLA-A2 is read with anti-HLA-A2 antibody BB7.2-PE; also called HLA-A2

LMLGEFLKL [peptide 2M, listing 2 of 2 here]: binds.
LTLGEFLKL [BIRC5-H, listing 2 of 2 here]: binds.
FMLGEFLKL [BIRC5-B1, listing 2 of 2 here]: binds.
ILPFGFILA [peptide 1I9A, listing 2 of 2 here]: binds.
FLPFGFILV [IL13RA2-B, listing 2 of 2 here]: binds.
FLPFGFILM [peptide 1F9M, listing 2 of 2 here]: binds.
ALPFGFILV [comparative peptide 1A9V, listing 2 of 2 here]: binds.

biological target: T1, HLA-A*0201 molecule on human T2 cells; assay: T2 cells expressing HLA-A*0201, anti-HLA-A2-PE, FACS (Example 9); remark: another data set of the same source

Point of comparison: LTLGEFLKL [BIRC5-H, listing 1 of 2 here], “Concentration of peptide that induces 20% of HLA-A2 expression” value 95.9 µM. Against it:
- LMLGEFLKL [peptide 2M, listing 1 of 2 here] — 33-fold lower, 2.87 µM
- FMLGEFLKL [BIRC5-B1, listing 1 of 2 here] — 77-fold lower, 1.24 µM

Point of comparison: FMLGEFLKL [BIRC5-B1, listing 1 of 2 here], “In vitro binding affinity (relative to reference peptide HIV pol 589-597)” value 1.46. Against it:
- LMLGEFLKL [peptide 2M, listing 1 of 2 here] — higher, 3.38
- LTLGEFLKL [BIRC5-H, listing 1 of 2 here] — higher, 113

biological target: T1, HLA-A*0201 molecule on human T2 cells; assay: T2 cells expressing HLA-A*0201, anti-HLA-A2-PE, FACS (Example 8)

Point of comparison: ALPFGFILV [comparative peptide 1A9V, listing 1 of 2 here], “In vitro binding affinity (relative to reference peptide HIV pol 589-597)” value 3.6. Against it:
- FLPFGFILPV [IL13RA2-L] — lower, 0.3
- FLPFGFILV [IL13RA2-B, listing 1 of 2 here] — lower, 0.3

Point of comparison: FLPFGFILV [IL13RA2-B, listing 1 of 2 here], “Concentration of peptide that induces 20% of HLA-A2 expression” value 2.9 µM. Against it:
- ALPFGFILV [comparative peptide 1A9V, listing 1 of 2 here] — 13-fold higher, 36.5 µM

biological target: T1, HLA-A*0201 molecule on human T2 cells; assay: T2 cells expressing HLA-A*0201, anti-HLA-A2-PE, FACS; remark: another data set of the same source

Point of comparison: LTLGEFLKL [BIRC5-H, listing 1 of 2 here], “mean relative fluorescence intensity at 1.5625 µM peptide” value 1.7 % of HIV peptide. Against it:
- FLVEDETVI [EZH2-B] — higher, 5.5 % of HIV peptide
- FMLGEFLKL [BIRC5-B1, listing 1 of 2 here] — higher, 1.9 % of HIV peptide
- FLPFGFILV [IL13RA2-B, listing 1 of 2 here] — higher, 14.8 % of HIV peptide

Point of comparison: LTLGEFLKL [BIRC5-H, listing 1 of 2 here], “mean relative fluorescence intensity at 3.125 µM peptide” value 1.4 % of HIV peptide. Against it:
- FLVEDETVI [EZH2-B] — higher, 14.4 % of HIV peptide
- FMLGEFLKL [BIRC5-B1, listing 1 of 2 here] — higher, 22.3 % of HIV peptide
- FLPFGFILV [IL13RA2-B, listing 1 of 2 here] — higher, 15.7 % of HIV peptide

Point of comparison: FMLGEFLKL [BIRC5-B1, listing 1 of 2 here], “mean relative fluorescence intensity at 6.25 µM peptide” value 36.1 % of HIV peptide. Against it:
- FLVEDETVI [EZH2-B] — lower, 28.9 % of HIV peptide
- LTLGEFLKL [BIRC5-H, listing 1 of 2 here] — lower, 10.8 % of HIV peptide
- FLPFGFILV [IL13RA2-B, listing 1 of 2 here] — higher, 40.8 % of HIV peptide

Point of comparison: LTLGEFLKL [BIRC5-H, listing 1 of 2 here], “mean relative fluorescence intensity at 25 µM peptide” value 9.8 % of HIV peptide. Against it:
- FLVEDETVI [EZH2-B] — higher, 53.9 % of HIV peptide
- FMLGEFLKL [BIRC5-B1, listing 1 of 2 here] — higher, 61.7 % of HIV peptide
- FLPFGFILV [IL13RA2-B, listing 1 of 2 here] — higher, 86.5 % of HIV peptide

Point of comparison: FMLGEFLKL [BIRC5-B1, listing 1 of 2 here], “mean relative fluorescence intensity at 50 µM peptide” value 77.1 % of HIV peptide. Against it:
- FLVEDETVI [EZH2-B] — higher, 82.6 % of HIV peptide
- LTLGEFLKL [BIRC5-H, listing 1 of 2 here] — lower, 18.9 % of HIV peptide
- FLPFGFILV [IL13RA2-B, listing 1 of 2 here] — higher, 113 % of HIV peptide

Point of comparison: FLPFGFILV [IL13RA2-B, listing 1 of 2 here], “mean relative fluorescence intensity at 100 µM peptide” value 128 % of HIV peptide. Against it:
- FLVEDETVI [EZH2-B] — lower, 94.9 % of HIV peptide
- LTLGEFLKL [BIRC5-H, listing 1 of 2 here] — lower, 35.6 % of HIV peptide
- FMLGEFLKL [BIRC5-B1, listing 1 of 2 here] — lower, 117 % of HIV peptide
